{
  "source": "paper doi:10.64898/2025.12.23.696152",
  "about": "(bioRxiv, 2025)",
  "molecules": {"B1": {"name": "KIF5C-mScarlet-Strep-tag II (human KIF5C, full length) (natural protein)", "chain": "MADPAECSIKVMCRFRPLNEAEILRGDKFIPKFKGDETVVIGQGKPYVFDRVLPPNTTQEQVYNACAKQIVKDVLEGYNGTIFAYGQTSSGKTHTMEGKLHDPQLMGIIPRIAHDIFDHIYSMDENLEFHIKVSYFEIYLDKIRDLLDVSKTNLAVHEDKNRVPYVKGCTERFVSSPEEVMDVIDEGKANRHVAVTNMNEHSSRSHSIFLINIKQENVETEKKLSGKLYLVDLAGSEKVSKTGAEGAVLDEAKNINKSLSALGNVISALAEGTKTHVPYRDSKMTRILQDSLGGNCRTTIVICCSPSVFNEAETKSTLMFGQRAKTIKNTVSVNLELTAEEWKKKYEKEKEKNKTLKNVIQHLEMELNRWRNGEAVPEDEQISAKDQKNLEPCDNTPIIDNIAPVVAGISTEEKEKYDEEISSLYRQLDDKDDEINQQSQLAEKLKQQMLDQDELLASTRRDYEKIQEELTRLQIENEAAKDEVKEVLQALEELAVNYDQKSQEVEDKTRANEQLTDELAQKTTTLTTTQRELSQLQELSNHQKKRATEILNLLLKDLGEIGGIIGTNDVKTLADVNGVIEEEFTMARLYISKMKSEVKSLVNRSKQLESAQMDSNRKMNASERELAACQLLISQHEAKIKSLTDYMQNMEQKRRQLEESQDSLSEELAKLRAQEKMHEVSFQDKEKEHLTRLQDAEEMKKALEQQMESHREAHQKQLSRLRDEIEEKQKIIDEIRDLNQKLQLEQEKLSSDYNKLKIEDQEREMKLEKLLLLNDKREQAREDLKGLEETVSRELQTLHNLRKLFVQDLTTRVKKSVELDNDDGGGSAAQKQKISFLENNLEQLTKVHKQLVRDNADLRCELPKLEKRLRATAERVKALESALKEAKENAMRDRKRYQQEVDRIKEAVRAKNMARRAHSAQIAKPIRPGHYPASSPTAVHAIRGGGGSSSNSTHYQK"}, "B2": {"name": "KIF5C(Δelbow)-mScarlet-Strep-tag II (natural protein)", "chain": "MADPAECSIKVMCRFRPLNEAEILRGDKFIPKFKGDETVVIGQGKPYVFDRVLPPNTTQEQVYNACAKQIVKDVLEGYNGTIFAYGQTSSGKTHTMEGKLHDPQLMGIIPRIAHDIFDHIYSMDENLEFHIKVSYFEIYLDKIRDLLDVSKTNLAVHEDKNRVPYVKGCTERFVSSPEEVMDVIDEGKANRHVAVTNMNEHSSRSHSIFLINIKQENVETEKKLSGKLYLVDLAGSEKVSKTGAEGAVLDEAKNINKSLSALGNVISALAEGTKTHVPYRDSKMTRILQDSLGGNCRTTIVICCSPSVFNEAETKSTLMFGQRAKTIKNTVSVNLELTAEEWKKKYEKEKEKNKTLKNVIQHLEMELNRWRNGEAVPEDEQISAKDQKNLEPCDNTPIIDNIAPVVAGISTEEKEKYDEEISSLYRQLDDKDDEINQQSQLAEKLKQQMLDQDELLASTRRDYEKIQEELTRLQIENEAAKDEVKEVLQALEELAVNYDQKSQEVEDKTRANEQLTDELAQKTTTLTTTQRELSQLQELSNHQKKRATEILNLLLKDLGEIGGIIGTNDVKTLADVNGVIEEEFTMARLYISKMKSEVKSLVNRSKQLESAQMDSNRKMNASERELAACQLLISQHEAKIKSLTDYMQNMEQKRRQLEESQDSLSEELAKLRAQLQDAEEMKKALEQQMESHREAHQKQLSRLRDEIEEKQKIIDEIRDLNQKLQLEQEKLSSDYNKLKIEDQEREMKLEKLLLLNDKREQAREDLKGLEETVSRELQTLHNLRKLFVQDLTTRVKKSVELDNDDGGGSAAQKQKISFLENNLEQLTKVHKQLVRDNADLRCELPKLEKRLRATAERVKALESALKEAKENAMRDRKRYQQEVDRIKEAVRAKNMARRAHSAQIAKPIRPGHYPASSPTAVHAIRGGGGSSSNSTHYQK"}, "B3": {"name": "KIF5C-Strep-tag II (natural protein)", "chain": "B1 chain"}, "B4": {"name": "KIF5C(Δelbow)-Strep-tag II (natural protein)", "chain": "B2 chain"}},
  "key": {"[1]": {"biological_target": "KIF5C(Δtail)-mScarlet-Strep-tag II (human) (UniProt O60282)", "experiment": "mass photometry"}, "[2]": {"biological_target": "KIF5C(ΔtailΔelbow)-mScarlet-Strep-tag II (human) (UniProt O60282)", "experiment": "mass photometry"}, "[3]": {"biological_target": "Taxol-stabilized microtubules polymerised from pig brain tubulin (pig) (UniProt P02550)", "experiment": "TIRF single-molecule motility assay"}, "mass photometry": {"biological_target": "the molecule itself", "experiment": "mass photometry"}},
  "note": "Values joined by “and” are separate entries in the source; they are usually repeats but may differ in a detail not shown here. Equal values may be shown once.",
  "data": [
    {"molecule": "KIF5C(Δtail)-mScarlet-Strep-tag II (from UniProt O60282 1-914) (domain or fragment)", "values": [
      {"measurement": "percent of particles as dimer", "setting": "[1]", "result": 93, "unit": "%"},
      {"measurement": "stoichiometry N", "setting": "[1]", "result": 2}
    ]},
    {"molecule": "KIF5C(ΔtailΔelbow)-mScarlet-Strep-tag II (from UniProt O60282 1-914) (domain or fragment)", "values": [
      {"measurement": "percent of particles as dimer", "setting": "[2]", "result": 91, "unit": "%"},
      {"measurement": "stoichiometry N", "setting": "[2]", "result": 2}
    ]},
    {"molecule": "B1", "values": [
      {"measurement": "landing rate (molecules/μm/s)", "setting": "[3]", "result": "0.011 and 0.0047"},
      {"measurement": "stoichiometry N", "setting": "mass photometry", "result": "2 and 4"}
    ]},
    {"molecule": "B2", "values": [
      {"measurement": "stoichiometry N", "setting": "mass photometry", "result": 4}
    ]},
    {"molecule": "B3", "values": [
      {"measurement": "stoichiometry N", "setting": "mass photometry", "result": "4 and 2"}
    ]},
    {"molecule": "B4", "values": [
      {"measurement": "percent of particles as dimer", "setting": "mass photometry", "result": 13, "unit": "%"},
      {"measurement": "percent of particles as tetramer", "setting": "mass photometry", "result": 62, "unit": "%"},
      {"measurement": "stoichiometry N", "setting": "mass photometry", "result": "2 and 4"}
    ]}
  ]
}
